Data from PMC10616211.

Experiments:
[1] = molecular target: cytosolic fragment of MFN2 (modified, truncated human MFN2, residues 1–19 and 401–705 deleted) (human) (UniProt O95140); experiment: ELISA; as the pH 6.2 plate assay, with purified DID as competitor (1 µM in the results; wells treated with 2 µM DID in the methods)
[2] = molecular target: cytosolic fragment of MFN2 (modified, truncated human MFN2, residues 1–19 and 401–705 deleted) (human) (UniProt O95140); experiment: ELISA; MFN2 coated on plates (0.1 µM); HEK293T lysate with DIAPH1-eCFP added in TBS pH 6.2, overnight 4 °C; anti-GFP-HRP; one site total and nonspecific binding fit
[3] = molecular target: cytosolic fragment of MFN2 (modified, truncated human MFN2, residues 1–19 and 401–705 deleted) (human) (UniProt O95140); experiment: ELISA; MFN2 coated on plates (0.1 µM); HEK293T lysate with DIAPH1-eCFP added in TBS pH 7.2, overnight 4 °C; anti-GFP-HRP; one site total and nonspecific binding fit

Chain of DIAPH1-eCFP (O60610 whole entry, the tested form may be a part): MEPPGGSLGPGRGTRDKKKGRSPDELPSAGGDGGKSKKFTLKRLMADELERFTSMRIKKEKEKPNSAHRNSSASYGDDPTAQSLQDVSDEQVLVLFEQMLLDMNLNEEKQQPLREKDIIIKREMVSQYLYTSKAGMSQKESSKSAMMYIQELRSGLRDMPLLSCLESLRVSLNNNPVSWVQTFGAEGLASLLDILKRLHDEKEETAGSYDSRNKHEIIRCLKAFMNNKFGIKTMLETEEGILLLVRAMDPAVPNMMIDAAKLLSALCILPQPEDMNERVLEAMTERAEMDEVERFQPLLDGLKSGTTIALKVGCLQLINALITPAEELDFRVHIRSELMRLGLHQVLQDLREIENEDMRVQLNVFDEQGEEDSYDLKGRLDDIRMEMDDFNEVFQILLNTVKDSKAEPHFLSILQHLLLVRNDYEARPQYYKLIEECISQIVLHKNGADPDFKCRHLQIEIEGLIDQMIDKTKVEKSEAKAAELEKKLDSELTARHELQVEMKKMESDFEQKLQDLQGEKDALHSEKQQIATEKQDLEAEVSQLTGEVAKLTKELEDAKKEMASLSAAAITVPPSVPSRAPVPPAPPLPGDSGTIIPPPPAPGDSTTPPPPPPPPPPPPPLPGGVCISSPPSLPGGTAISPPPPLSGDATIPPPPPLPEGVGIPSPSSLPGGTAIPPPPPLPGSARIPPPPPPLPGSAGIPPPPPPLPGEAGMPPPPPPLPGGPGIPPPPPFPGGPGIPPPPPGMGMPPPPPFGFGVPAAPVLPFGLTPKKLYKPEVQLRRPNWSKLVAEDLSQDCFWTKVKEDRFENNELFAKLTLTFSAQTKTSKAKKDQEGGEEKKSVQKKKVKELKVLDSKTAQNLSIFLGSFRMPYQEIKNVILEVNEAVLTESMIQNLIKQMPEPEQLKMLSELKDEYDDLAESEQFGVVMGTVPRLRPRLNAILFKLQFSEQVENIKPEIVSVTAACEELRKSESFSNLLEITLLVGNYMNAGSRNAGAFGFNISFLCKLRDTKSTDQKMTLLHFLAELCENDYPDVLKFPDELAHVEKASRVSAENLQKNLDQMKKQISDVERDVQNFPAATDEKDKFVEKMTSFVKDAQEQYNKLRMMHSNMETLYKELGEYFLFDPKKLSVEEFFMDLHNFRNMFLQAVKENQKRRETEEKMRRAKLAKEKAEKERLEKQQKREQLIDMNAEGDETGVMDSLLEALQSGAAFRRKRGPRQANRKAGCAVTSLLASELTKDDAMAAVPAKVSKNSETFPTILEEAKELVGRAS

## DIAPH1-eCFP (from UniProt O60610 1-1272) (natural protein)
[1]
  KD in the presence of 1 µM DID: 0.22 nM
[2]
  Kd: 0.01 nM
[3]
  Kd: 0.7 nM
